For one molecule, fold increase in binding to CHO/CR3 cells compared to CHO/NEO cells results are on record in paper PMC2944003.

This assay deals with human complement receptor 3 (CR3) on CR3-transfected CHO cells (CHO/CR3) (human), P11215. Description: flow cytometry on cells. The note with it: remark: other sources report otherwise. A general note: In flow cytometry, cells or beads pass a laser one at a time.

B1: Factor H (fH), purified human, P08603 19-1231 (natural protein)
chain: EDCNELPPRRNTEILTGSWSDQTYPEGTQAIYKCRPGYRSLGNVIMVCRKGEWVALNPLRKCQKRPCGHPGDTPFGTFTLTGGNVFEYGVKAVYTCNEGYQLLGEINYRECDTDGWTNDIPICEVVKCLPVTAPENGKIVSSAMEPDREYHFGQAVRFVCNSGYKIEGDEEMHCSDDGFWSKEKPKCVEISCKSPDVINGSPISQKIIYKENERFQYKCNMGYEYSERGDAVCTESGWRPLPSCEEKSCDNPYIPNGDYSPLRIKHRTGDEITYQCRNGFYPATRGNTAKCTSTGWIPAPRCTLKPCDYPDIKHGGLYHENMRRPYFPVAVGKYYSYYCDEHFETPSGSYWDHIHCTQDGWSPAVPCLRKCYFPYLENGYNQNYGRKFVQGKSIDVACHPGYALPKAQTTVTCMENGWSPTPRCIRVKTCSKSSIDIENGFISESQYTYALKEKAKYQCKLGYVTADGETSGSITCGKDGWSAQPTCIKSCDIPVFMNARTKNDFTWFKLNDTLDYECHDGYESNTGSTTGSIVCGYNGWSDLPICYERECELPKIDVHLVPDRKKDQYKVGEVLKFSCKPGFTIVGPNSVQCYHFGLSPDLPICKEQVQSCGPPPELLNGNVKEKTKEEYGHSEVVEYYCNPRFLMKGPNKIQCVDGEWTTLPVCIVEESTCGDIPELEHGWAQLSSPPYYYGDSVEFNCSESFTMIGHRSITCIHGVWTQLPQCVAIDKLKKCKSSNLIILEEHLKNKKEFDHNSNIRYRCRGKEGWIHTVCINGRWDPEVNCSMAQIQLCPPPPQIPNSHNMTTTLNYRDGEKVSVLCQENYLIQEGEEITCKDGRWQSIPLCVEKIPCSQPPQIEHGTINSSRSSQESYAHGTKLSYTCEGGFRISEENETTCYMGKWSSPPQCEGLPCKSPPEISHGVVAHMSDSYQYGEEVTYKCFEGFGIDGPAIAKCLGEKWSHPPSCIKTDCLSLPSFENAIPMGEKKDVYKAGEQVTYTCATYYKMDGASNVTCINSRWTGRPTCRDTSCVNPPTVQNAYIVSRQMSKYPSGERVRYQCRSPYEMFGDEEVMCLNGNWTEPPQCKDSTGKCGPPPPIDNGDITSFPLSVYAPASSVEYQCQNLYQLEGNKRITCRNGQWSEPPKCLHPCVISREIMENYNIALRWTAKQKLYSRTGESVEFVCKRGYRLSSRSHTLRTTCWDGKLEYPTCAKR
B1 returned a fold increase in binding to CHO/CR3 cells compared to CHO/NEO cells of 4 fold.
